According to patent US20110098217A1 (INDIANA UNIVERSITY RESEARCH AND TECHNOLOGY, published 2011):
Read-outs that look alike come from different tables or passages of the source. Bridge positions count the residues as written; N and C are the ends. Square brackets hold non-standard residues; d marks the D form. Ends that are not written are not given here. * marks the point of attachment. COCH2CH2S‑Chol = CC(C)CCC[C@@H](C)[C@H]1CC[C@H]2[C@@H]3CC=C4C[C@@H](SCCC(=O)*)CC[C@]4(C)[C@H]3CC[C@]12C; Abu(4-SO3H) = N[C@@H](CCS(=O)(=O)O)C(=O)O; PhLac = O=C(O)[C@@H](O)Cc1ccccc1; Aib = CC(C)(N)C(=O)O

What was measured:
human glucagon receptor [1] = target: T1, human glucagon receptor (human, UniProt P47871 26-477); assay: cell-based or functional assay
T1 sequence (P47871 26-477): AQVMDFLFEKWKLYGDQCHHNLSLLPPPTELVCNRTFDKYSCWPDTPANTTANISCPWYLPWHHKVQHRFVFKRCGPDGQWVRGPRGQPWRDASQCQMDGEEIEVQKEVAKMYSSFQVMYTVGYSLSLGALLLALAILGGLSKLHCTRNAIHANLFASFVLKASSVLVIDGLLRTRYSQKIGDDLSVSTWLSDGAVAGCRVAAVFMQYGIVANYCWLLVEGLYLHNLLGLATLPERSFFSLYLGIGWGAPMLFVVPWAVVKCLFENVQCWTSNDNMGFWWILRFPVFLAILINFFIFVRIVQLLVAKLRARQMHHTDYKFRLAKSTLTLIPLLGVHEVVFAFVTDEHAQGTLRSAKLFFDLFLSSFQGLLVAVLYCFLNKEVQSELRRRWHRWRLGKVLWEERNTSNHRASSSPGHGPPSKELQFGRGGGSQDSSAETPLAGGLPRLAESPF

human glucagon receptor [2] = target: T1, human glucagon receptor; assay: SPA competition vs 125I-glucagon, receptor membranes
human GLP-1 receptor [3] = target: T2, human GLP-1 receptor (human, UniProt P43220 24-463); assay: cell-based or functional assay
human glucagon receptor [4] = target: T1, human glucagon receptor; assay: cell-based or functional assay; remark: listed apart in the source
human GLP-1 receptor [5] = target: T2, human GLP-1 receptor; assay: cell-based or functional assay; remark: listed apart in the source
human GLP-1 receptor [6] = target: T2, human GLP-1 receptor; assay: cell-based or functional assay; remark: listed apart in the source
human glucagon receptor [7] = target: T1, human glucagon receptor; assay: cell-based or functional assay; remark: listed apart in the source
human GLP-1 receptor [8] = target: T2, human GLP-1 receptor; assay: cell-based or functional assay; remark: listed apart in the source
human glucagon receptor [9] = target: T1, human glucagon receptor; assay: cell-based or functional assay; remark: listed apart in the source
human glucagon receptor [10] = target: T1, human glucagon receptor; assay: cell-based or functional assay; remark: listed apart in the source
human glucagon receptor [11] = target: T1, human glucagon receptor; assay: cell-based or functional assay; remark: listed apart in the source
human GLP-1 receptor [12] = target: T2, human GLP-1 receptor; assay: cell-based or functional assay; remark: listed apart in the source
human glucagon receptor [13] = target: T1, human glucagon receptor; assay: cell-based or functional assay; remark: listed apart in the source
human glucagon receptor [14] = target: T1, human glucagon receptor; assay: cell-based or functional assay; remark: listed apart in the source

B1: [hCys^9(SO3H)]Glucagon(aa5-29)-NH2 (peptide)
peptide: TFTS[Abu(4-SO3H)]YSKYLDSRRAQDFVQWLMNT-NH2
modifications: N-terminus assumed
SMILES: CSCC[C@H](NC(=O)[C@H](CC(C)C)NC(=O)[C@H](Cc1c[nH]c2ccccc12)NC(=O)[C@H](CCC(N)=O)NC(=O)[C@@H](NC(=O)[C@H](Cc1ccccc1)NC(=O)[C@H](CC(=O)O)NC(=O)[C@H](CCC(N)=O)NC(=O)[C@H](C)NC(=O)[C@H](CCCNC(=N)N)NC(=O)[C@H](CCCNC(=N)N)NC(=O)[C@H](CO)NC(=O)[C@H](CC(=O)O)NC(=O)[C@H](CC(C)C)NC(=O)[C@H](Cc1ccc(O)cc1)NC(=O)[C@H](CCCCN)NC(=O)[C@H](CO)NC(=O)[C@H](Cc1ccc(O)cc1)NC(=O)[C@H](CCS(=O)(=O)O)NC(=O)[C@H](CO)NC(=O)[C@@H](NC(=O)[C@H](Cc1ccccc1)NC(=O)[C@@H](N)[C@@H](C)O)[C@@H](C)O)C(C)C)C(=O)N[C@@H](CC(N)=O)C(=O)N[C@H](C(N)=O)[C@@H](C)O
Human glucagon receptor [1]
  cAMP IC50: 98.3 nM
  cAMP pA2: 6.77
Human glucagon receptor [2]
  IC50: 33.9 nM

## [Aib]EGT[PhLac]TSDYSKYLDERRAKDFVQWLMDT-NH2 (lactam 15-19; also: PLA6 linked to Thr5 by an ester bond (depsipeptide)) [Aib depsi lactam G(2-29)]
Human GLP-1 receptor [3]
  GLP-1 agonism EC50: 5.83 nM
Human glucagon receptor [4]
  Glucagon antagonism IC50 (inhibit 0.4 nM glucagon): 11.8 nM

## HSQGTFTSDYARYLDARRAREFIKWLVRGRG [ANK2 (Bayer peptide)]
Human GLP-1 receptor [5]
  GLP-1 agonism EC50: 0.28 nM
Human GLP-1 receptor [6]
  GLP-1 EC50: 0.28 nM

B2: [PLA^4, E^9]Glucagon(aa4-29)-NH2 (peptide)
peptide: [PhLac]TFTSEYSKYLDSRRAQDFVQWLMNT-NH2
modifications: N-terminus assumed
SMILES: CSCC[C@H](NC(=O)[C@H](CC(C)C)NC(=O)[C@H](Cc1c[nH]c2ccccc12)NC(=O)[C@H](CCC(N)=O)NC(=O)[C@@H](NC(=O)[C@H](Cc1ccccc1)NC(=O)[C@H](CC(=O)O)NC(=O)[C@H](CCC(N)=O)NC(=O)[C@H](C)NC(=O)[C@H](CCCNC(=N)N)NC(=O)[C@H](CCCNC(=N)N)NC(=O)[C@H](CO)NC(=O)[C@H](CC(=O)O)NC(=O)[C@H](CC(C)C)NC(=O)[C@H](Cc1ccc(O)cc1)NC(=O)[C@H](CCCCN)NC(=O)[C@H](CO)NC(=O)[C@H](Cc1ccc(O)cc1)NC(=O)[C@H](CCC(=O)O)NC(=O)[C@H](CO)NC(=O)[C@@H](NC(=O)[C@H](Cc1ccccc1)NC(=O)[C@@H](NC(=O)[C@@H](O)Cc1ccccc1)[C@@H](C)O)[C@@H](C)O)C(C)C)C(=O)N[C@@H](CC(N)=O)C(=O)N[C@H](C(N)=O)[C@@H](C)O
Human glucagon receptor [7]
  IC50 (cAMP, inhibit 0.8 mM Glucagon): 84.4 nM

## SQGTFTS[Abu(4-SO3H)]YSKYLDSRRAQDFVQWLMNT-NH2 [[hCys^9(SO3H)]Glucagon(aa2-29)-NH2]
Human glucagon receptor [1]
  cAMP IC50: 147 nM
Human glucagon receptor [2]
  IC50: 13.2 nM

B3: [hCys^9(SO3H)]Glucagon(aa4-29)-NH2 (peptide)
peptide: GTFTS[Abu(4-SO3H)]YSKYLDSRRAQDFVQWLMNT-NH2
modifications: N-terminus assumed
SMILES: CSCC[C@H](NC(=O)[C@H](CC(C)C)NC(=O)[C@H](Cc1c[nH]c2ccccc12)NC(=O)[C@H](CCC(N)=O)NC(=O)[C@@H](NC(=O)[C@H](Cc1ccccc1)NC(=O)[C@H](CC(=O)O)NC(=O)[C@H](CCC(N)=O)NC(=O)[C@H](C)NC(=O)[C@H](CCCNC(=N)N)NC(=O)[C@H](CCCNC(=N)N)NC(=O)[C@H](CO)NC(=O)[C@H](CC(=O)O)NC(=O)[C@H](CC(C)C)NC(=O)[C@H](Cc1ccc(O)cc1)NC(=O)[C@H](CCCCN)NC(=O)[C@H](CO)NC(=O)[C@H](Cc1ccc(O)cc1)NC(=O)[C@H](CCS(=O)(=O)O)NC(=O)[C@H](CO)NC(=O)[C@@H](NC(=O)[C@H](Cc1ccccc1)NC(=O)[C@@H](NC(=O)CN)[C@@H](C)O)[C@@H](C)O)C(C)C)C(=O)N[C@@H](CC(N)=O)C(=O)N[C@H](C(N)=O)[C@@H](C)O
Human glucagon receptor [1]
  cAMP IC50: 68.4 nM
  cAMP pA2: 7.22
Human glucagon receptor [2]
  IC50: 41.5 nM

B4: [H1A2E3, E9, E16K20(Lactam), D28]G(1-29) (peptide)
peptide: HAEGTFTSEYSKYLDERRAKDFVQWLMDT-NH2
modifications: lactam 16-20; N-terminus assumed
SMILES: CSCC[C@H](NC(=O)[C@H](CC(C)C)NC(=O)[C@H](Cc1c[nH]c2ccccc12)NC(=O)[C@H](CCC(N)=O)NC(=O)[C@@H](NC(=O)[C@H](Cc1ccccc1)NC(=O)[C@H](CC(=O)O)NC(=O)[C@@H]1CCCCNC(=O)CC[C@H](NC(=O)[C@H](CC(=O)O)NC(=O)[C@H](CC(C)C)NC(=O)[C@H](Cc2ccc(O)cc2)NC(=O)[C@H](CCCCN)NC(=O)[C@H](CO)NC(=O)[C@H](Cc2ccc(O)cc2)NC(=O)[C@H](CCC(=O)O)NC(=O)[C@H](CO)NC(=O)[C@@H](NC(=O)[C@H](Cc2ccccc2)NC(=O)[C@@H](NC(=O)CNC(=O)[C@H](CCC(=O)O)NC(=O)[C@H](C)NC(=O)[C@@H](N)Cc2c[nH]cn2)[C@@H](C)O)[C@@H](C)O)C(=O)N[C@@H](CCCNC(=N)N)C(=O)N[C@@H](CCCNC(=N)N)C(=O)N[C@@H](C)C(=O)N1)C(C)C)C(=O)N[C@@H](CC(=O)O)C(=O)N[C@H](C(N)=O)[C@@H](C)O
Human GLP-1 receptor [8]
  GLP-1 agonism EC50: 0.11 nM
Human glucagon receptor [9]
  Glucagon antagonism IC50 (inhibit 0.8 nM glucagon): 129 nM
Human GLP-1 receptor [5]
  GLP-1 agonism EC50: 0.11 nM
Human glucagon receptor [10]
  Glucagon antagonism IC50 (inhibit 0.8 nM glucagon): 129 nM
Human GLP-1 receptor [6]
  GLP-1 EC50: 0.2 nM
Human glucagon receptor [11]
  Glucagon IC50: 130 nM
Human GLP-1 receptor [12]
  GLP-1 agonism EC50: 0.11 nM
Human glucagon receptor [13]
  Glucagon antagonism IC50 (inhibit 0.2-0.8 nM glucagon): 129 nM

B5: K30-chol G(6-30) (peptide)
peptide: [PhLac]TSDYSKYLDERRAKDFVQWLMDTK(COCH2CH2S‑Chol)-NH2
modifications: lactam 11-15; N-terminus assumed
SMILES: CSCC[C@H](NC(=O)[C@H](CC(C)C)NC(=O)[C@H](Cc1c[nH]c2ccccc12)NC(=O)[C@H](CCC(N)=O)NC(=O)[C@@H](NC(=O)[C@H](Cc1ccccc1)NC(=O)[C@H](CC(=O)O)NC(=O)[C@@H]1CCCCNC(=O)CC[C@H](NC(=O)[C@H](CC(=O)O)NC(=O)[C@H](CC(C)C)NC(=O)[C@H](Cc2ccc(O)cc2)NC(=O)[C@H](CCCCN)NC(=O)[C@H](CO)NC(=O)[C@H](Cc2ccc(O)cc2)NC(=O)[C@H](CC(=O)O)NC(=O)[C@H](CO)NC(=O)[C@@H](NC(=O)[C@@H](O)Cc2ccccc2)[C@@H](C)O)C(=O)N[C@@H](CCCNC(=N)N)C(=O)N[C@@H](CCCNC(=N)N)C(=O)N[C@@H](C)C(=O)N1)C(C)C)C(=O)N[C@@H](CC(=O)O)C(=O)N[C@H](C(=O)N[C@@H](CCCCNC(=O)CCS[C@H]1CC[C@@]2(C)C(=CC[C@H]3[C@@H]4CC[C@H]([C@H](C)CCCC(C)C)[C@@]4(C)CC[C@@H]32)C1)C(N)=O)[C@@H](C)O
Human GLP-1 receptor [3]
  GLP-1 agonism EC50: 14.4 nM
Human glucagon receptor [4]
  Glucagon antagonism IC50 (inhibit 0.4 nM glucagon): 575 nM

B6: K10-chol G(6-29) (peptide)
peptide: [PhLac]TSDK(COCH2CH2S‑Chol)SKYLDERRAKDFVQWLMDT-NH2
modifications: lactam 11-15; N-terminus assumed
SMILES: CSCC[C@H](NC(=O)[C@H](CC(C)C)NC(=O)[C@H](Cc1c[nH]c2ccccc12)NC(=O)[C@H](CCC(N)=O)NC(=O)[C@@H](NC(=O)[C@H](Cc1ccccc1)NC(=O)[C@H](CC(=O)O)NC(=O)[C@@H]1CCCCNC(=O)CC[C@H](NC(=O)[C@H](CC(=O)O)NC(=O)[C@H](CC(C)C)NC(=O)[C@H](Cc2ccc(O)cc2)NC(=O)[C@H](CCCCN)NC(=O)[C@H](CO)NC(=O)[C@H](CCCCNC(=O)CCS[C@H]2CC[C@@]3(C)C(=CC[C@H]4[C@@H]5CC[C@H]([C@H](C)CCCC(C)C)[C@@]5(C)CC[C@@H]43)C2)NC(=O)[C@H](CC(=O)O)NC(=O)[C@H](CO)NC(=O)[C@@H](NC(=O)[C@@H](O)Cc2ccccc2)[C@@H](C)O)C(=O)N[C@@H](CCCNC(=N)N)C(=O)N[C@@H](CCCNC(=N)N)C(=O)N[C@@H](C)C(=O)N1)C(C)C)C(=O)N[C@@H](CC(=O)O)C(=O)N[C@H](C(N)=O)[C@@H](C)O
Human GLP-1 receptor [3]
  GLP-1 agonism EC50: 35.2 nM
Human glucagon receptor [4]
  Glucagon antagonism IC50 (inhibit 0.4 nM glucagon): 271 nM

B7: [G4T5, E9, E16K20(Lactam), D28] G(4-29) (peptide)
peptide: GTFTSEYSKYLDERRAKDFVQWLMDT-NH2
modifications: lactam 13-17; N-terminus assumed
SMILES: CSCC[C@H](NC(=O)[C@H](CC(C)C)NC(=O)[C@H](Cc1c[nH]c2ccccc12)NC(=O)[C@H](CCC(N)=O)NC(=O)[C@@H](NC(=O)[C@H](Cc1ccccc1)NC(=O)[C@H](CC(=O)O)NC(=O)[C@@H]1CCCCNC(=O)CC[C@H](NC(=O)[C@H](CC(=O)O)NC(=O)[C@H](CC(C)C)NC(=O)[C@H](Cc2ccc(O)cc2)NC(=O)[C@H](CCCCN)NC(=O)[C@H](CO)NC(=O)[C@H](Cc2ccc(O)cc2)NC(=O)[C@H](CCC(=O)O)NC(=O)[C@H](CO)NC(=O)[C@@H](NC(=O)[C@H](Cc2ccccc2)NC(=O)[C@@H](NC(=O)CN)[C@@H](C)O)[C@@H](C)O)C(=O)N[C@@H](CCCNC(=N)N)C(=O)N[C@@H](CCCNC(=N)N)C(=O)N[C@@H](C)C(=O)N1)C(C)C)C(=O)N[C@@H](CC(=O)O)C(=O)N[C@H](C(N)=O)[C@@H](C)O
Human GLP-1 receptor [5]
  GLP-1 agonism EC50: 151 nM
Human glucagon receptor [10]
  Glucagon antagonism IC50 (inhibit 0.8 nM glucagon): 12.7 nM
Human GLP-1 receptor [6]
  GLP-1 EC50: 151 nM

## AEGTFTSEYSKYLDERRAKDFVQWLMDT-NH2 (lactam 15-19) [[A2E3, E9, E16K20(Lactam), D28]G(2-29)]
Human glucagon receptor [9]
  Glucagon antagonism IC50 (inhibit 0.8 nM glucagon): 63.2 nM
Human glucagon receptor [14]
  Glucagon antagonism IC50 (inhibit 0.8 nM glucagon): 151 nM
Human glucagon receptor [10]
  Glucagon antagonism IC50 (inhibit 0.8 nM glucagon): 63.2 nM
Human glucagon receptor [11]
  Glucagon IC50: 63 nM
Human glucagon receptor [13]
  Glucagon antagonism IC50 (inhibit 0.2-0.8 nM glucagon): 63.2 nM
